{"source": "patent CN113480644A", "biological_target": "SARS-CoV-2 S蛋白 (on virus particles) (SARS-CoV-2) (UniProt P0DTC2)", "assay": "cell-based or functional assay"}
{"substance": "REGN10987 (antibody)", "values": [{"measurement": "中和效率(IC 50), 假病毒中和 (MLV pseudovirus, ACE2-HEK293)", "value": 0.162, "unit": "µg/mL"}]}
